Biological target: MCR-1 protein
Test: indirect ELISA, plate coated with MCR-1 protein at 0.2 ug/mL, purified antibody serially diluted
Details: scale: dilution factor

B1: mouse anti-MCR-1 protein antibody 1BH8 (antibody, V domains shown)
VH: VQLQQSGPELVKPGASVKMSCRASGYTFTNYIMHWVKQKPGQGLDWIGYINPYNDGTKYNEKFKGKATLSSDKSSGTAYMDLSSLTSEDSAVYYCARGPYGNYAMDYWGQGTSVTVSS
VL: DVLMTQTPLSLPVSLGDQASISCRSSQNIVCSYGNPCLEWYLQKPGQSPKLLIYKVSNRFSGVPDRFSGSGSGTDFTLKISRVEAEDLGVYYCFQGSHVPWTFGGGTELEIKR
Binder B1 has a titer of over 1.28e+06.

B2: mouse anti-MCR-1 protein antibody 1BD9 (antibody, V domains shown)
VH: VKLQQSGPELVKPGASVKVSCKASGYAFTSCNMYWVKQSHGKSLEWIGYFDPYSGDAYYNQKFKDKATLTVDKSSSTAYMHLNSLTSEDSAVYYCASWLQLYYALDYWGQGTSVTVSA
VL: AIQMTQTPSSLSASLGDRVTISCRASQDISNYLNWYQQKPDGTVKLLIYYTSRLHSGVPSRFSGSGSGTDYSLNISNLEQEDFATYFCQQGDMIPDTFGGGTKLEIKR
B2 gave a titer of over 1.28e+06.
